{"source": "paper PMC11915506", "key": {"[1]": {"target": "Peltigera membranacea cyanobiont 210A (Pmc) TnsC (Peltigera membranacea cyanobiont 210A)", "assay": "cryo-EM structure"}, "[2]": {"target": "Peltigera membranacea cyanobiont 210A (Pmc) TnsC (Peltigera membranacea cyanobiont 210A)", "assay": "cryo-EM structure", "remark": "listed apart in the source"}}, "note": "Where two headings read alike, the source gives them in different places."}
{"substance": "Peltigera membranacea cyanobiont 210A (Pmc) TnsC (natural protein)", "values": [{"measurement": "stoichiometry N", "setting": "[1]", "value": 7}, {"measurement": "stoichiometry N", "setting": "[2]", "value": 7}]}
